Tests used:
Assay in all cases: RIA, competition with 125I-Ang-(1-12)
[1] = target: T1, purified rat angiotensinogen (AGT) protein (rat, UniProt P01015 25-477)
T1 construct: also called rat AGT
T1 sequence (looked up): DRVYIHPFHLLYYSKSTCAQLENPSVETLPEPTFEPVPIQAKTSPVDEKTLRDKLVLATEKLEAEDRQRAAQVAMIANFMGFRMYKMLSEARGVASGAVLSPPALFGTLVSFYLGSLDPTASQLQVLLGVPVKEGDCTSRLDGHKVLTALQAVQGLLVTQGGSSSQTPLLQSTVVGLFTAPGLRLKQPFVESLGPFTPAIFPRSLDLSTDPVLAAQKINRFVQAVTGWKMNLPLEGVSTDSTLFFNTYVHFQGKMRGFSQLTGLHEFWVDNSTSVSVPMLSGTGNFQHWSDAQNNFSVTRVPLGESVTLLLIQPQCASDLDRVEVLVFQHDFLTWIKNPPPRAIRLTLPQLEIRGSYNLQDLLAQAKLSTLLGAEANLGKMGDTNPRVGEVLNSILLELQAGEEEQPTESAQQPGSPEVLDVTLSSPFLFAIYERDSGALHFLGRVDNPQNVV
Procedure: (§1) h-Ang-(1-12) Specificity and Cross-reactivity Assays: For specificity, a synthetic non-radiolabeled h-Ang-(1-12) standard (purity≥98%) was used. Briefly, 200 μL of the RIA buffer (50 mM PBS, 25 mM EDTA, 0.5% triton X-100, 0.05% sodium azide and 0.5% BSA, pH 7.4) containing 50 μL of mAb (1:2,000 dilution of IgG concentration 1.3 mg/mL), 50 μL of 125I-Ang-(1-12) [6-8 fmoles/tube, purity>99%] and 50 μL of different concentrations of non-radiolabeled human Ang-(1-12) peptide (0 to 10,000 fmol/0.2 mL RIA tube) were combined and the RIA tubes were incubated overnight for 20-22 hours at 4° C. At the end of incubation period, 50 μL of 1% γ-globulin were added, mixed, and the bound/free (B/Bo) forms of h-Ang-(1-12) were then separated by precipitating the bound (B) fraction with 200 μL of 23% polyethylene glycol (PEG). The bound and unbound (Bo) traces were separated by centrifuging the tubes at 3,000 rpm for 30 min at 4° C. The radioactivity corresponding to the antibody-bound antigen in the precipitate were measured in a PerkinElmer Wizard2 Gamma Counter. The binding data were analyzed and graphed using a statistical program (GraphPad Prism 8). To examine the cross-reactivity of the mAb with human and rat AGT or AGT-derived angiotensin peptides, several fold higher concentrations (AGT up to 10,000 fmol and angiotensin peptides up to 5,000 fmol) were used. Briefly, in a total of 200 μL of RIA buffer we added 50 μL of h-Ang-(1-12) mAb (1:2,000 dilution), 50 μL of ¹²⁵I-Ang-(1-12) and 50 μL of non-radiolabeled angiotensin peptides [Ang I, ([…]; SEQ ID NO:20); Ang-(1-9), ([…]; SEQ ID NO:23); Ang II, ([…]; SEQ ID NO:21); Ang-(1-7), (DRVYIHP; SEQ ID NO:22) and rat Ang-(1-12), ([…]; SEQ ID NO:24)] or purified AGT protein (10,000 fmol per RIA tube) and after mixing the contents, the RIA tubes were incubated overnight (20-22 hours at 4° C.) and processed as described above.

Angiotensin-(1-7) = target: T2, Angiotensin-(1-7)
T2 construct: also called Ang-(1-7)
T2 peptide: DRVYIHP
Procedure: as §1

Ang-(1-9) = target: Ang-(1-9)
Procedure: as §1

[2] = target: T3, purified human angiotensinogen (AGT) protein (human, UniProt P01019 25-476)
T3 construct: also called human AGT
T3 sequence (looked up): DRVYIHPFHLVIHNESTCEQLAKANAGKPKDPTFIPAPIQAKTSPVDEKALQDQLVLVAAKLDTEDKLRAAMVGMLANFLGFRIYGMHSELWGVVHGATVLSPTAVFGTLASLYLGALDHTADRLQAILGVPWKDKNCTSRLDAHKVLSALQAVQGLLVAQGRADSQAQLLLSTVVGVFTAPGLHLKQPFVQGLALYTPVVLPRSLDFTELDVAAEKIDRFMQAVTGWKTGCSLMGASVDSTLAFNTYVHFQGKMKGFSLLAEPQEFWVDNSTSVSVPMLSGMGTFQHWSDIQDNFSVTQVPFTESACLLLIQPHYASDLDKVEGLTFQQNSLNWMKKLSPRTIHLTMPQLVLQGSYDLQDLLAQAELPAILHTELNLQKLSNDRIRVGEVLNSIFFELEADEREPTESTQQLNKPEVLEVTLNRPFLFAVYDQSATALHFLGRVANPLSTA
Procedure: as §1

B1: h-Ang-(1-12) monoclonal antibody, Clone# 14B3 (Protein L purified mAb IgG) (antibody, V domains shown)
VH: DVQLQESGPGLVKPSQSLSLTCTVNGYSITSDFAWNWIRQFPGNKLEWMGYISYSGNTYYNPSLKSRISITRDTSKNQFFLQLNSVTTEDTATYYCARGSYYFDYWGQGTTLTVSS
VL: DIVMSQSPSSLAVSAGEKVTMSCKSSQSLLNSRTRKNYLAWYQQKPGQSPKLLIYWASTRESGVPDRFTGSGSGTDFTLTISSVQAEDLAVYYCKQSYNLRTFGGGTKLEIK
notes: also called Ang-(1-12)-mAb; h-Ang-(1-12) mAb
B1: no binding (tested: AGT up to 10,000 fmol) [1]; no binding (tested: angiotensin peptides up to 5,000 fmol) (Angiotensin-(1-7)); no binding (tested: angiotensin peptides up to 5,000 fmol) (Ang-(1-9)). B1: no binding (tested: AGT up to 10,000 fmol) [2].
